“Also recorded” adds a separate entry of the source.
Test system: hBAT progenitors with hUCP1-promoter-Luc/GFP
Assay: Transplantation of UCP1 reporter progenitors into nude mice, in vivo bioluminescent imaging
Set-up: species or system BALB/c athymic nude mice
Settings: mice implanted with hBAT progenitors; 3.3 nM BMP7 pretreatment of progenitors 6 days
From the text: FIG. 7A depicts a transgenic UCP1 reporter system for measuring UCP1 gene expression. A bicistronic luciferase and green fluorescent protein (GFP) reporter was coupled to a 4.1 kb human UCP1 promoter fragment. FIG. 7B depicts the organization of plasmid pLV.ExBi.P/Puro-hUCP1promoter-Luc(firefly)-T2A-hrGFP, which contains the UCP1 reporter system described in FIG. 7A. FIG. 7C depicts time-lapse microscopy of differentiating hBAT-SVF cells containing the UCP1 reporter system. UCP1 expression was monitored by visualization of GFP. FIG. 7D depicts that in hBAT-SVF and hWAT-SVF cells stably expressing the reporter construct, luciferase activity (Right) was strongly correlated with endogenous UCP1 gene expression (Left) during the course of differentiation (see FIG. 2A and Methods). For determination of UCP1 mRNA levels, total RNAs were isolated on day 0, 2, 3, 5, 9, 12, 15 and 18; for luciferase activity assay, cell lysates were collected on day 0, 6, 9 and 18. Data are presented as fold changes compared to hWAT-SVF on day 0 (mean±s.e.m., n=3). […]
Human immortalized white and brown fat progenitors with hUCP1-promoter-Luc/GFP were grown in the presence and absence of 3.3 nM BMP7 for 6 days to reach confluence. […] The luminescence intensity in regions of interest from each image was quantified to examine the viability of the implanted cells. […]

B1: BMP7: Recombinant human BMP7, an inducer of brown adipogenesis (protein, UniProt P18075 293-431, looked up)
Bone morphogenetic protein 7: STGSKQRSQNRSKTPKNQEALRMANVAENSSSDQRQACKKHELYVSFRDLGWQDWIIAPEGYAAYYCEGECAFPLNSYMNATNHAIVQTLVHFINPETVPKPCCAPTQLNAISVLYFDDSSNVILKKYRNMVVRACGCH
Q: With B1 as the molecule, how does the “luciferase activity (UCP1 reporter) in vivo” value read?
A: further induced; also recorded: increased further

From patent publication US11078259B2, “Methods and compositions for promoting thermogenic potential” (Joslin Diabetes Center, Inc., priority 2015, dated 2021)
